T1: Chimeric protein #1 (mPro-hCat-mC-term-mmh) (mouse; human, UniProt Q80W65 35-694)
T1 chain: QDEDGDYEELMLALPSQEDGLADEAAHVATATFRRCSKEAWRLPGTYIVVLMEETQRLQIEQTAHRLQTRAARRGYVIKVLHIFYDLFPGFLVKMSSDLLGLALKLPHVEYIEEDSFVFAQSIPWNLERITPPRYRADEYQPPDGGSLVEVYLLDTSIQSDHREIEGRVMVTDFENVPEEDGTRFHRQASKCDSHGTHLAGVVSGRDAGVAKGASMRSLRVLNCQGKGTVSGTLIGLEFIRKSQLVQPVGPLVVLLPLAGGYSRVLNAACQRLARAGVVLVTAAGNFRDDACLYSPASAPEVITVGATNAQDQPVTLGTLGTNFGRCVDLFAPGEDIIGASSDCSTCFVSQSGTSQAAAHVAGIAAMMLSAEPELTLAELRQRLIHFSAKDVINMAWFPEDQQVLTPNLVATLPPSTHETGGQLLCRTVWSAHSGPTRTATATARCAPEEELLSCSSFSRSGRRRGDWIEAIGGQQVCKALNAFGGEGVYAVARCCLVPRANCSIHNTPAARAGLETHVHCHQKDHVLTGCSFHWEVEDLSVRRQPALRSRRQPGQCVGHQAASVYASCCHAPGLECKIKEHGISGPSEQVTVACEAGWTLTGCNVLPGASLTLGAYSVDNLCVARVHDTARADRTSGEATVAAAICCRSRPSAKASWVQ


What was measured:
[1] = target: T2, cynomolgus monkey (Macaca fascicularis) PCSK9, myc-myc-his tagged (cynomolgus monkey (Macaca fascicularis), UniProt A8T662 31-692 (Macaca nemestrina entry), limits assumed); test: SPR, mAb amine-coupled, 37C, pH 5.5
T2 construct: also called mfPCSK9-mmh; mfPCSK9
T2 sequence (A8T662 31-692 limits assumed): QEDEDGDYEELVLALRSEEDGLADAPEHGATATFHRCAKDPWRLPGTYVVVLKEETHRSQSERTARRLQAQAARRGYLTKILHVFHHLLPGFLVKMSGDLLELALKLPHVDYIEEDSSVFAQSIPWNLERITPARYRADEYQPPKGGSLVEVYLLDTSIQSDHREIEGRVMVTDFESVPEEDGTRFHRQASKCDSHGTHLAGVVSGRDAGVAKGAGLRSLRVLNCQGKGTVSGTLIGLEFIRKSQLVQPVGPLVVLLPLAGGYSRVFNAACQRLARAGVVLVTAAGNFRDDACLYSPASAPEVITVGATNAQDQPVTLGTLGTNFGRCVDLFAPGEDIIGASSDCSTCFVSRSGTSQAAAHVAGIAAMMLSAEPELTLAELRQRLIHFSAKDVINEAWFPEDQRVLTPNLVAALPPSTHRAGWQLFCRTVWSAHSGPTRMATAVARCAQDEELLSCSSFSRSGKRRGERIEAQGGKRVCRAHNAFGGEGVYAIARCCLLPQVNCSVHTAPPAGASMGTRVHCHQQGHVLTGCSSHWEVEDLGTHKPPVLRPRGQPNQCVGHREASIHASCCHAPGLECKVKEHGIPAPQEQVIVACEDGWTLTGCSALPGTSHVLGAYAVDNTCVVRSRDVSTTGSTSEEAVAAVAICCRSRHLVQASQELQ
Source text: (§1) Briefly, mAbs were immobilized onto BIACORE™ CM5 sensor chips via amine coupling.

[2] = target: T3, Human PCSK9-myc-myc-his (human, UniProt Q8NBP7 31-692); test: SPR, mAb amine-coupled, 37C, pH 5.5
T3 construct: also called hPCSK9-mmh; hPCSK9
Source text: as §1

[3] = target: T4, hPCSK9(D374Y)-mmh (human, UniProt Q8NBP7 31-692); test: SPR, mAb amine-coupled, 37C, pH 5.5
T4 construct: also called hPCSK(D374Y)-mmh
Source text: as §1

[4] = target: T4, hPCSK9(D374Y)-mmh; test: competition ELISA vs EGF-A-hFc, pH 5.5
Procedure: (§2) Briefly, hLDLR-ecto, hLDLR EGF-A-hFc or hLDLR EGF-AB-hFc, each at 2 μg/ml, was coated on a 96-well plate in PBS buffer overnight at 4° C., and nonspecific binding sites blocked with BSA. […] The equilibrated sample solutions were transferred to receptor or receptor fragment coated plates.

[5] = target: T4, hPCSK9(D374Y)-mmh; test: competition ELISA vs EGF-AB-hFc, pH 5.5
Procedure: as §2

[6] = target: T5, mouse PCSK9, myc-myc-his tagged (mouse, UniProt Q80W65 35-694); test: cell-based or functional assay
[7] = target: T3, Human PCSK9-myc-myc-his; test: cell-based or functional assay
[8] = target: rat (Rattus norvegicus) PCSK9, myc-myc-his tagged (rat (Rattus norvegicus), UniProt P59996 31-691); test: cell-based or functional assay
Sequence of rat (Rattus norvegicus) PCSK9, myc-myc-his tagged (P59996 31-691 limits assumed): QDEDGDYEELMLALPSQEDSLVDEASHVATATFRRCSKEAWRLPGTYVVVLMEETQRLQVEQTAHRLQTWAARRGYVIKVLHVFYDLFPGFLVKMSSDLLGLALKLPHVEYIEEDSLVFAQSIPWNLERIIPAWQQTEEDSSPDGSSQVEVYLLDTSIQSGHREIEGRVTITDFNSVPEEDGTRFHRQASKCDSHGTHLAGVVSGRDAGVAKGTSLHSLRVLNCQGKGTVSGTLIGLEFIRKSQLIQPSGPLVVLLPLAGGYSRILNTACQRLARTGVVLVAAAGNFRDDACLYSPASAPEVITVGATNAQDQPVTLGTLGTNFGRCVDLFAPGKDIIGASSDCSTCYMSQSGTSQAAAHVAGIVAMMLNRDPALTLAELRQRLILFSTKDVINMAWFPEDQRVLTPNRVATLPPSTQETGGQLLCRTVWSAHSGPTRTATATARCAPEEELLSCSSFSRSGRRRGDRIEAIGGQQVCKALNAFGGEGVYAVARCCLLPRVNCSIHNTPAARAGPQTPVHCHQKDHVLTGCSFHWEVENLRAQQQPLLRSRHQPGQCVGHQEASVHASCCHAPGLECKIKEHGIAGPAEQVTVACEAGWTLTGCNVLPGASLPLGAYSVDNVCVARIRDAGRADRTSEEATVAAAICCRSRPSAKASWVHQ

[9] = target: T6, hPCSK9(R357H) (human, UniProt Q8NBP7 31-692); test: SPR, mAb captured, 25C;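 also: antibodies held on a sensor chip bearing chemically coupled F(ab′)2 anti-human IgG as the capture surface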
T6 construct: mmh-tagged variant hPCSK9
Source text: (§3) Each selected antibody was captured on a F(ab′)2 anti-hIgG surface created through direct chemical coupling to a BIACORE™ chip to form a captured antibody surface.

[10] = target: hPCSK9(P70A, S147F) (human, UniProt Q8NBP7 31-692); test: SPR, mAb captured, 25C;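 also: antibodies held on a sensor chip bearing chemically coupled F(ab′)2 anti-human IgG as the capture surface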
Source text: as §3

[11] = target: T7, hPCSK9(S147F) (human, UniProt Q8NBP7 31-692); test: SPR, mAb captured, 25C;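 also: antibodies held on a sensor chip bearing chemically coupled F(ab′)2 anti-human IgG as the capture surface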
T7 construct: mmh-tagged variant hPCSK9
Source text: as §3

[12] = target: T8, hPCSK9(E197R) (human, UniProt Q8NBP7 31-692); test: SPR, mAb captured, 25C;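 also: antibodies held on a sensor chip bearing chemically coupled F(ab′)2 anti-human IgG as the capture surface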
T8 construct: mmh-tagged variant hPCSK9
Source text: as §3

[13] = target: T9, hPCSK9(D192R) (human, UniProt Q8NBP7 31-692); test: SPR, mAb captured, 25C
T9 construct: mmh-tagged variant hPCSK9
Source text: as §3

[14] = target: T3, Human PCSK9-myc-myc-his; test: competition ELISA vs hLDLR-ecto, pH 7.2
Procedure: as §2

[15] = target: T2, cynomolgus monkey (Macaca fascicularis) …; test: SPR, mAb amine-coupled, 25C, pH 5.5
Source text: as §1

[16] = target: T3, Human PCSK9-myc-myc-his; test: SPR, mAb amine-coupled, 25C, pH 5.5
Source text: as §1

[17] = target: T4, hPCSK9(D374Y)-mmh; test: SPR, mAb amine-coupled, 25C, pH 5.5
Source text: as §1

[18] = target: Chimeric protein #2 (hPro-mCat-mC-term-mmh) (human; mouse, UniProt Q80W65 19-694); test: SPR, mAb captured on anti-hFc, 100 nM antigen
Procedure: (§4) Changes in RU due to the binding of each protein to the mAb surface was determined.

[19] = target: T5, mouse PCSK9, myc-myc-his tagged; test: SPR, mAb captured on anti-hFc, 100 nM antigen
Procedure: as §4

[20] = target: T3, Human PCSK9-myc-myc-his; test: SPR, mAb captured on anti-hFc, 100 nM antigen
Procedure: as §4

[21] = target: T1, Chimeric protein #1 …; test: SPR, mAb captured on anti-hFc, 100 nM antigen
Procedure: as §4

[22] = target: T4, hPCSK9(D374Y)-mmh; test: competition ELISA vs EGF-AB-hFc, pH 7.2
Procedure: as §2

[23] = target: T3, Human PCSK9-myc-myc-his; test: competition ELISA vs EGF-A-hFc, pH 5.5
Procedure: as §2

Binder	Kd [1] [nM]	T1/2 [1] [min]	Kd [2] [nM]	T1/2 [2] [min]	Kd [3] [nM]	T1/2 [3] [min]	IC50 [4] [nM]	IC50 [5] [nM]	IC50, LDL uptake in HepG2 cells [6] [nM]	IC50, LDL uptake in HepG2 cells [7] [nM]	IC50, LDL uptake in HepG2 cells [8] [nM]	Kd [9] [nM]	T1/2 [9] [min]	Kd [10] [nM]	T1/2 [10] [min]	Kd [11] [nM]	T1/2 [11] [min]	Kd [12] [nM]	T1/2 [12] [min]	Kd [13] [nM]	other results
H1M300N (antibody, V domains shown, Fully human version made in CHO cells) VH: EMQLVESGGGLVQPGGSLRLSCAASGFTFSSHWMKWVRQAPGKGLEWVANINQDGSEKYYVDSVKGRFTISRDNAKNSLFLQMNSLRAEDTAVYYCARDIVLMVYDMDYYYYGMDVWGQGTTVTVSS VL: not shown	65.2	0.1	11.9	1	28	1	3.46	3.94	> 500	12.6	> 500	6.53	66	7.87	24	9.07	24	0.67	115	0.75	T1/2 [13]: 119 min; IC50 [14]: 0.144 nM; Kd [15]: 38.5 nM; T1/2 [15]: 0.4 min; Kd [16]: 3.1 nM; T1/2 [16]: 5 min; Kd [17]: 9.03 nM; T1/2 [17]: 3 min; change in RU [18]: 76 RU; change in RU [19]: 13 RU; change in RU [20]: 320 RU; change in RU [21]: 243 RU; IC50 [22]: 0.142 nM; IC50 [23]: 0.538 nM
H1H316P (antibody, V domains shown, Fully human mAb made in CHO cells; also called mAb316P) VH: EVQLVESGGGLVQPGGSLRLSCAASGFTFNNYAMNWVRQAPGKGLDWVSTISGSGGTTNYADSVKGRFIISRDSSKHTLYLQMNSLRAEDTAVYYCAKDSNWGNFDLWGRGTLVTVSS VL: not shown	0.044	5	0.142	11	1.56	5	1.12	1.14	21.2	14.1	27.7	6.26	30	1.18	34	1.29	32	1.42	27	1.35	T1/2 [13]: 28 min; IC50 [14]: < 0.125 nM; Kd [15]: 0.008 nM; T1/2 [15]: 23 min; Kd [16]: 0.022 nM; T1/2 [16]: 39 min; Kd [17]: 0.166 nM; T1/2 [17]: 13 min; change in RU [18]: 451 RU; change in RU [19]: 505 RU; change in RU [20]: 500 RU; change in RU [21]: 529 RU; IC50 [22]: 0.139 nM; IC50 [23]: < 0.125 nM
